The text below walks through data of the RNAGym collection of RNA variant scans (doi:10.1073/pnas.2313332121).

This sample holds only a part of the variants without activity. Bounds are passed on as bounds.

To fix the notation:
B1: TPR 5TU (parent)
chain: GGAUCUUCUCGAUCUAACAAAAAAGACAAAUCUGCCACAAAGCUUGAGAGCAUCUUCGGAUGCAGAGGCGGCAGCCUUCGGUGGCGCGAUAGCGCCAACGUUCUCAACUAUGACACGCAAAACGCGUGCUCCGUUGAAUGGAGUUUAUCAUG

In this series the parent is B1. The experiment in a line: polymerase ribozyme fitness, log enrichment relative to wild type (log ratio); higher = more active; in vitro selection for triplet polymerase activity. In outline:
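Mutant libraries of each subunit of a heterodimeric triplet polymerase ribozyme were built by PCR and transcribed. Each library went through one round of in vitro selection in triplicate: annealing with biotinylated primer, partner subunit and triplets, frozen incubation at −7 °C, gel excision of extended constructs, streptavidin-bead capture and RT-PCR. Input and output libraries were Illumina-sequenced; only genotypes with ≥10 input reads and ≥1 read per output were kept. Fitness is log2(genotype enrichment/wild-type enrichment), using inverse-variance-weighted replicate averages.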
For A12G A41U C85U U101G C105A G140U G152U, the “polymerase ribozyme fitness (log ratio)” value was -4.09. Under A16G C149G stands -3.97; under U9G C32U C38U A49C G58A A60U C87G C95U G133U A142U, at most -4.2; under U31A U55A A147G, -0.55. Then A49G G92U, with 0.21.

For C8U G81A G88A, the “polymerase ribozyme fitness (log ratio)” value is at most -4.2. C96A C125U G143A: the “polymerase ribozyme fitness (log ratio)” value was -3.57. Under G34A U77G C87A A91C C108U G133A stands at most -4.2. Under U4A A21U C38U C85A C87G C103A stands at most -4.2. Then U53A G80A U109A C123U A142G, with -3.11; and A20C C35U A97G, with -0.284; and C35U C43A G58U C75G C87G A121U C123U G133A, with at most -4.2. As for C57U C87G, the “polymerase ribozyme fitness (log ratio)” value was at most -4.2. Under A23G C76A stands -2.49. Under G100A C129G stands at most -4.2; under C35U C69U A91G C118A, -3.8; under U7G A60U G83C C85A C105G A137G, at most -4.2.

With A26G A49C A89U G92A U102G G140U, the “polymerase ribozyme fitness (log ratio)” value was at most -4.2.

As to A26G C32A A39C C54A A150G, the “polymerase ribozyme fitness (log ratio)” value was at most -4.2. Under C38A G58U C95G stands -1.52. For the variant A52C G86C, the “polymerase ribozyme fitness (log ratio)” value was -4.07.

Consider A29C, for which the “polymerase ribozyme fitness (log ratio)” value is -3.73. Then G58A C75U C118G, with -0.168; and G50A C96U, with -1.47; and A40G A73G G86A, with -4.16.

As to U53G C87G G133U, the “polymerase ribozyme fitness (log ratio)” value is at most -4.2. Under U6C A60U G86A stands -3.49; under G58U G81A A122G, -0.315.

G80A A119U: the “polymerase ribozyme fitness (log ratio)” value was -0.405.

Consider C38G A120U G140C A142C, for which the “polymerase ribozyme fitness (log ratio)” value is at most -4.2. Then C43U C54U U56G U78C C85G C93G G133A G136U G140U, with at most -4.2; and C85G A106G, with -2.59; and U13A A41C A91U C96U, with at most -4.2. On to G88A A110G, for which the “polymerase ribozyme fitness (log ratio)” value was at most -4.2. Then A41U G124U, with -0.896.

Take C76A A142G U146A: the “polymerase ribozyme fitness (log ratio)” value is -1.52. Under A115U A119G A138G stands at most -4.2; under U31C G83C G140C, -4.18; under U55A A64C, at most -4.2. Under C72U G126U C132A stands -4.12. On to U33G G62U C69U C103A G126C, for which the “polymerase ribozyme fitness (log ratio)” value was at most -4.2.

For the variant C10A A20G A23C A24U A26G C85G A91G G100U A115G, the “polymerase ribozyme fitness (log ratio)” value was at most -4.2. Under U53A C63U C99G stands -3.81. On to A52G C96U U101A A142U A150G, for which the “polymerase ribozyme fitness (log ratio)” value is at most -4.2. Then A28C U61A G88A, with at most -4.2; and U4G A40G C72G C87U U104G C118U A122G, with at most -4.2; and C76G G80C C105U, with at most -4.2.

Turning to A16C U55A A142G A150G, the “polymerase ribozyme fitness (log ratio)” value was -3.06.

For the variant G94A U148C, the “polymerase ribozyme fitness (log ratio)” value was -2.75. Under C57G G84U A89C G112C U139C C149A stands at most -4.2; under U33A U53A U148C, at most -4.2.

For U56A C85U, the “polymerase ribozyme fitness (log ratio)” value was -0.564. Under U6A C87A A137C stands at most -4.2. Then U4G U7G A20U C57U A91U C123U A150U, with -3; and U33G C95G C116A, with -4.15. U4A C10U A17G A21C C43U G92A C105A G124C: the “polymerase ribozyme fitness (log ratio)” value is at most -4.2. Then C18G C32G C35U G86U C105G A115C, with -4; and A41C C85A C105G G126U, with -3.3; and A3U C14G A30U U55G C95U, with at most -4.2. As to A26U G80A A98C U101G, the “polymerase ribozyme fitness (log ratio)” value is -3.73. Then G126U, with 0.31; and A12C, with 0.0783. Turning to G58A C93U, the “polymerase ribozyme fitness (log ratio)” value was -2. Then C76G G92U A121G G143U, with at most -4.2. Then U4G U6G C85U G141A, with -3.39; and A3G A52U C54U U77G A121G A122G A137G, with at most -4.2; and U31A A91C C116A, with -3.88. Consider A16G A20G A120C, for which the “polymerase ribozyme fitness (log ratio)” value was -1.84. Under U15G U31A stands 0.571; under U4G G88U, -3.2.

As to A12G G25C A122G G136A, the “polymerase ribozyme fitness (log ratio)” value is -3.16. Then C54U G88C, with at most -4.2. Then A37C A49C C54A U78G C93U G124A, with at most -4.2; and A19G C54G C96G C149U, with -3.72; and G11C G74A C76U C93G A113G U145A, with at most -4.2. U13G C103A: the “polymerase ribozyme fitness (log ratio)” value was -2.97. Under C27G G65A stands at most -4.2; under C27U C43A A97U A150G, at most -4.2; under C93U G141U, -0.142. For U9G G50A G83A G133U, the “polymerase ribozyme fitness (log ratio)” value is at most -4.2.

In the case of A3C U4A, the “polymerase ribozyme fitness (log ratio)” value is 0.257. Then A30C G48C G67A A91U G100U, with at most -4.2; and U151A, with -3.44; and C93A C105U, with -2.67.
